Test results as given in US20240325557A1 (INNATE PHARMA, published 2024).

Legend:
[1] = target: T1, human Nectin 2 on CHO cells (human, UniProt Q92692 32-538); assay: flow cytometry on CHO cells expressing human Nectin 2
T1 sequence: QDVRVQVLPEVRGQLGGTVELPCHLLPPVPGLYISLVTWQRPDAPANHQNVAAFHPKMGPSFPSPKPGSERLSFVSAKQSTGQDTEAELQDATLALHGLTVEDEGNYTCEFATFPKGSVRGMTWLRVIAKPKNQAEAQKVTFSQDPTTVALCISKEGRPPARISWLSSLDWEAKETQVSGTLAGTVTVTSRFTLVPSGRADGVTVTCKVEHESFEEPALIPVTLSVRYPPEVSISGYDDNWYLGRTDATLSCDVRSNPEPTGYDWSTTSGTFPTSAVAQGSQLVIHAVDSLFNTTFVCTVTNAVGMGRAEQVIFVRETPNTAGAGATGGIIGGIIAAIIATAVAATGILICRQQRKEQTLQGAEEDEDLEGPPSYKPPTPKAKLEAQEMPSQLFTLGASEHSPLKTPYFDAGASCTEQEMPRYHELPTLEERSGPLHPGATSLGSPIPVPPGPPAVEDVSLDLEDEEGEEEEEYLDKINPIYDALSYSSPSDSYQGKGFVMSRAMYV
Experimental: (§1) Anti-Nectin-4 antibodies were tested by flow cytometry for binding to different CHO cell lines made to express respectively the human Nectin 1, Nectin 2, Nectin 3 and PVR proteins. The expression of each cell lines was controlled and validated with known respectively the anti-human Nectin1, anti-human Nectin2, anti-human Nectin3 and anti-human PVR antibodies. The mature amino acid sequence of the proteins expressed by the cells were as follows:
(§2) Nectin 1, Nectin 2, Nectin 3 and PVR proteins as in Example 12. […] Epitope mapping was carried out by assessing competition for binding to Nectin-4 by SPR as in Example 14.

[2] = target: T2, human Nectin 1 on CHO cells (human, UniProt Q15223 31-517); assay: flow cytometry on CHO cells expressing human Nectin 1
T2 sequence: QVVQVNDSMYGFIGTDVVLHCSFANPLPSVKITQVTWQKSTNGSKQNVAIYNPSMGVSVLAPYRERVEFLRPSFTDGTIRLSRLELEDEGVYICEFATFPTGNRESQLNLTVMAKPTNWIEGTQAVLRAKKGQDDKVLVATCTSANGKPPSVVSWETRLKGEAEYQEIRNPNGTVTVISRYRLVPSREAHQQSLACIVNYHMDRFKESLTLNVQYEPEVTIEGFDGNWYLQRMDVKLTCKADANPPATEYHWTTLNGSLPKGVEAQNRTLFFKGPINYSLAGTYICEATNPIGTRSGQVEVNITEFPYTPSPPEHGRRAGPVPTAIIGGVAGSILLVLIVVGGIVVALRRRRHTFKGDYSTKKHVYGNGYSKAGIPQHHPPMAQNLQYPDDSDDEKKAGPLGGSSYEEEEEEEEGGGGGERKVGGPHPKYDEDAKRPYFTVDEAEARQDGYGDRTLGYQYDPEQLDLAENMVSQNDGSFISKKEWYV
Experimental: as §1, §2

binding result [1]: no binding
binding result [2]: no binding
B1: antibody 6A7 (antibody, human IgG1, V domains shown)
VH: QVQLKESGAELVKPGASVKLSCKASGYTFTSYWMHWVKQRPGHGLEWVGEIDPSDSYTNYNQKFKGKATLTIDKSSSTVYMQLSSLTSEDSAVYYCARSGNYDAMDYWGQGTSVTVSA
VL: DIVMTQAAFSSAVTLGTSASISCRSSKSLLHSNGITYLYWYLQKPGQSPHFLIYQMSNLASGVPDRFTSSGSGTDFTLRISRVEAEDVGVYYCAQNLELPWTFGGGTKLEIK
notes: also called CHG1-M-4N4-6A7
